Measurements from patent US20230399409A1.

Assays:
human IL-36R (human) = human IL-36R (human) (UniProt Q9HB29); assay: flow cytometry on CHO-K1 cells expressing human IL-36R; fit value in the second table under the plot for a flat curve (row ECF corresponds to EC90 of Table 8; no unit in the table, axis in µg/mL)
monkey IL-36R (monkey) = assay: flow cytometry on CHO-K1 cells expressing monkey IL-36R; fit value in the second table under the plot for a flat curve (row ECF corresponds to EC90 of Table 8; no unit in the table, axis in µg/mL)

Sequence of human IL-36R (human) (Q9HB29 20-575): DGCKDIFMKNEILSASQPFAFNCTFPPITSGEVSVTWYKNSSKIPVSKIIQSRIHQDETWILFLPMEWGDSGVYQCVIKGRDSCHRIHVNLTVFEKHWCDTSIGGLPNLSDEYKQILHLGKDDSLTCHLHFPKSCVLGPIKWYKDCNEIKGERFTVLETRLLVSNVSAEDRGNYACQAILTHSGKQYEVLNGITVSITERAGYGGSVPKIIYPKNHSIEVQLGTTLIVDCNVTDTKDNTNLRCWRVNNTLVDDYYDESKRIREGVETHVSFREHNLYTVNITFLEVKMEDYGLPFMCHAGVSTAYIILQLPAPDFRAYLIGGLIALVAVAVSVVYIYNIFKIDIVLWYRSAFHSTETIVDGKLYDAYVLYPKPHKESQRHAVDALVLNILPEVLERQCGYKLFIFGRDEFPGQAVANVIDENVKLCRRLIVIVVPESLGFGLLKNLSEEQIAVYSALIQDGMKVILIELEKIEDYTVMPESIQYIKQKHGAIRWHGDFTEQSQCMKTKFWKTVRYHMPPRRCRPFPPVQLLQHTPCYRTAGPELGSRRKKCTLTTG

ECF (human IL-36R (human)): 0.000494 µg/mL | ECF (monkey IL-36R (monkey)): 0.000457 µg/mL
Substance: TNP IgG1 (Fc silence) negative control antibody 900543
